Experimental data: FireProtDB

[1] = Thermotoga maritima (strain ATCC 43589 / DSM 3109 / JCM 10099 / NBRC 100826 / MSB8), pH 6.5, 25 °C, GdnHCl, Fluorescence, sodium phosphate 50 mM, NaCl 20 mM, reversible: yes
[2] = Mus musculus, pH 6.88, 5 °C, Pressure, NMR, Tris 20 mM, reversible: yes, structure 1MBG
[3] = Homo sapiens, pH 7, Thermal, CD, Phosphate 100 mM, NaCl 150 mM, structure 1DXX

Chain of Cold shock-like protein wild type, O54310 (O54310 whole entry): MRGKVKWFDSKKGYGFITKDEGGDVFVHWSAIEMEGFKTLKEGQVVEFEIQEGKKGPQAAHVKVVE
Chain of Transcriptional activator Myb V103L, P06876 (P06876 whole entry V103L): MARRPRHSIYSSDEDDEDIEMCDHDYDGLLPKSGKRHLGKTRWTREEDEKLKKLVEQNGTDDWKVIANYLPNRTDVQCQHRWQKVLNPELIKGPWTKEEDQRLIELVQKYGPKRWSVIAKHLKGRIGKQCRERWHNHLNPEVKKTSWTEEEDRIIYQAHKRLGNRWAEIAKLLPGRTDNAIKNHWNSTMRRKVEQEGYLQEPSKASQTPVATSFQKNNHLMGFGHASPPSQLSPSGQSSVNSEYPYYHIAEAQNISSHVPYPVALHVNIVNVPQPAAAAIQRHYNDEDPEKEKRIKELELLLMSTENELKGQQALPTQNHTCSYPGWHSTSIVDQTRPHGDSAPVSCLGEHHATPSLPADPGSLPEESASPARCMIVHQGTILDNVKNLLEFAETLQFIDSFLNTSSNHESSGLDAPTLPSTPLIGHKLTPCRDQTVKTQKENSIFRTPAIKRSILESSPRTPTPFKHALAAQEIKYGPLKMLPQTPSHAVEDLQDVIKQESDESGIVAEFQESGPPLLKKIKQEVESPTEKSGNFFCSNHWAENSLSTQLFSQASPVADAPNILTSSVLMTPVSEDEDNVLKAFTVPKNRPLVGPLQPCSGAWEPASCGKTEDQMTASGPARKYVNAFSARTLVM
Chain of Cytochrome c wild type, P62894 (P62894 whole entry): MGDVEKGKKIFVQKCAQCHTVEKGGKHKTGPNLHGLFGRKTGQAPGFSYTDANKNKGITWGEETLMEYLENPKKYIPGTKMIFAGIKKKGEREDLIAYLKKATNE

Phospholipase A2, major isoenzyme wild type, P00592
unfolding free energy (Sus scrofa, pH 7, 20 °C, GdnHCl, Absorbance, Tris 5 mM, reversible: yes): 0 kcal/mol

Cold shock-like protein wild type, O54310
denaturant m value [1]: 1.34 kcal/mol/M | unfolding free energy [1]: 3.35 kcal/mol

Phospholipase A2, major isoenzyme N111D, P00592
unfolding free energy (Sus scrofa, pH 7, 20 °C, GdnHCl, Absorbance, Tris 5 mM, reversible: yes, structure 1P2P): 0.19 kcal/mol

Cytochrome c wild type, P62894
unfolding free energy (Bos taurus, pH 6.5, 25 °C, GdnHCl, CD, HCl 0.1 M, reversible: yes): 15.4 kcal/mol

Transcriptional activator Myb V103L, P06876
ddG of mutation (higher = less stable) [2]: -0.48 kcal/mol | unfolding free energy [2]: 1.75 kcal/mol

Dystrophin, P11532 Y231N
Tm [3]: 43 °C | change of melting temperature, mutant - wild type (higher = more stable) [3]: -15 °C
